Test results as given in US20090110678A1 (Eli Lilly, published 2009).

Assays:
[1] = molecular target: T1, Human PDGFRα extracellular domain (ECD) (human, UniProt P16234 24-528); assay: solid-phase blocking of iodinated PDGF binding to immobilized PDGFRα ECD; the table does not name the ligand, [125I]PDGF-AA by the legend of FIG. 13B; solid-phase PDGF blocking; ligand not named in Table 6
T1 construct: extracellular domain; Bought reagent; also called PDGFRa ECD; PDGFRα ECD

[2] = molecular target: T1, Human PDGFRα extracellular domain (ECD); assay: direct binding ELISA on immobilized PDGFRα ECD (ED50, 50% maximum binding)
[3] = molecular target: T2, PDGFRα expressed on cells (PAE Rα, PC3-ML, SKLMS-1, U118) (human, UniProt P16234 24-1089); assay: cell-based PDGF blocking assay (Heldin et al. 1988); cells and PDGF isoform not named; cell-based PDGF blocking; cells and isoform not named
T2 construct: whole, on cells; also called PDGFRa; cell surface PDGFRα

[4] = molecular target: T1, Human PDGFRα extracellular domain (ECD); assay: SPR, BIAcore 3000, PDGFRα ECD immobilized, antibody injected; Koff/Kon
Protocol: (§1) The kinetics of antibody binding to PDGFRα was measured using a BIAcore 3000 instrument (BIAcore, Inc., Piscataway, N.J.). PDGFRα ECD was immobilized onto a sensor chip and antibody was injected at various concentrations. Sensograms were obtained at each concentration and evaluated using the BIA Evaluation 2.0 program to determine the rate constants. The affinity constant, Kd, was calculated from the ratio of rate constants Koff/Kₒₙ.

[5] = molecular target: T1, Human PDGFRα extracellular domain (ECD); assay: SPR, BIAcore 3000, PDGFRα ECD immobilized, antibody injected
Protocol: as §1

[6] = molecular target: T1, Human PDGFRα extracellular domain (ECD); assay: solid-phase blocking of [125I]PDGF-BB binding to immobilized PDGFRα ECD; [125I]PDGF-BB as ligand, solid phase
[7] = molecular target: T1, Human PDGFRα extracellular domain (ECD); assay: solid-phase blocking assay: inhibition of [125I]PDGF-AA binding to immobilized PDGFRα ECD
[8] = molecular target: T2, PDGFRα expressed on cells (PAE Rα, …); assay: cell-based or functional assay

T2 sequence (P16234 24-1089): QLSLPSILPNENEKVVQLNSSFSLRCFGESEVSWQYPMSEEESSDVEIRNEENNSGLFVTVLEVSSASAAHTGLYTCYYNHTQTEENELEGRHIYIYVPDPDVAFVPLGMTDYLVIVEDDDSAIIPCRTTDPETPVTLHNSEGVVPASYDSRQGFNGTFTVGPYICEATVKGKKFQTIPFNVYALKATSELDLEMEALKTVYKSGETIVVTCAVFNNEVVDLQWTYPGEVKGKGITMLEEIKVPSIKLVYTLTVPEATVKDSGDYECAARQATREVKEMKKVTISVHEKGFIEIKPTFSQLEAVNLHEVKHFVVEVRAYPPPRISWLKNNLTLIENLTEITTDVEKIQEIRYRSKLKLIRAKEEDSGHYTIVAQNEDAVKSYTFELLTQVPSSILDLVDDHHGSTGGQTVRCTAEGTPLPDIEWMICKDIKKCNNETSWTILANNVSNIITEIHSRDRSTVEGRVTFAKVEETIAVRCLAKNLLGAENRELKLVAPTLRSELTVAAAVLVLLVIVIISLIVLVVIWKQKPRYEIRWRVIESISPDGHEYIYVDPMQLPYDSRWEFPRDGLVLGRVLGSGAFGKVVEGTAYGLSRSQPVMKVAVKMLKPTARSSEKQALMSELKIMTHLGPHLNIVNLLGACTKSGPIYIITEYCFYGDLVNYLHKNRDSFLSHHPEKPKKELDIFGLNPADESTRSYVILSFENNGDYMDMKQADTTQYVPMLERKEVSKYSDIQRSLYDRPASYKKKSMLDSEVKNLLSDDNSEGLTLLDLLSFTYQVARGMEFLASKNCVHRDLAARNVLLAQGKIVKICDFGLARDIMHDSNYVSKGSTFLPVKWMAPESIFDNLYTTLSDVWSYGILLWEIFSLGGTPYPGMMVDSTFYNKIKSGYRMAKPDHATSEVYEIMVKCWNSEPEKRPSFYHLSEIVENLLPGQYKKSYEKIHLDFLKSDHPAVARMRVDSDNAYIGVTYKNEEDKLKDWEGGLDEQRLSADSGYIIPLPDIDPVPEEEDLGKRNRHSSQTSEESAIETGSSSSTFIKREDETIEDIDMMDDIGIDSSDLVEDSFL
T1 sequence (P16234 24-528): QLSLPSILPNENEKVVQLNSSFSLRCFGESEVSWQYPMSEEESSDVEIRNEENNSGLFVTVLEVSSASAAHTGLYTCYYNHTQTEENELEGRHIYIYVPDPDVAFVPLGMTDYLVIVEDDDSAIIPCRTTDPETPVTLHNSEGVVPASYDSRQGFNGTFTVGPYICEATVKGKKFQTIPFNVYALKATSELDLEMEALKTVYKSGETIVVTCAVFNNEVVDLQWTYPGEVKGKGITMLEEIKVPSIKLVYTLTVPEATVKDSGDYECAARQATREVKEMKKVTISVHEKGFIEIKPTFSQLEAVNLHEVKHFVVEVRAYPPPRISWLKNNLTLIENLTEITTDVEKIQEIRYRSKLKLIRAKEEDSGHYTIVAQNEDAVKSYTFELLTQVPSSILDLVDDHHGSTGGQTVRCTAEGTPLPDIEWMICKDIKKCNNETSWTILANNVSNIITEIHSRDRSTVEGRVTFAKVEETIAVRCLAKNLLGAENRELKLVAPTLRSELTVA

B1: IMC-3G3, human anti-PDGFRα monoclonal antibody (antibody, human IgG1, V domains shown)
VH: QLQLQESGPGLVKPSETLSLTCTVSGGSINSSSYYWGWLRQSPGKGLEWIGSFFYTGSTYYNPSLRSRLTISVDTSKNQFSLMLSSVTAADTAVYYCARQSTYYYGSGNYYGWFDRWDQGTLVTVSS
VL: EIVLTQSPATLSLSPGERATLSCRASQSVSSYLAWYQQKPGQAPRLLIYDASNRATGIPARFSGSGSGTDFTLTISSLEPEDFAVYYCQQRSNWPPAFGQGTKVEIK
notes: also called EMC-3G3; anti-PDGFRα antibody
B1 gave an IC50 [1] of 0.24 nM, an EC50 [2] of 0.06 nM and an IC50 [3] of 0.58 nM. The Kd [4] was 0.04 nM, the koff [5] was 4.7e-05 s⁻¹ and the IC50 [6] was 0.43 nM. For the same binder, the “IC50 (read off the curve)” value [7] was about 0.3 nM and the “EC50, inhibition of PDGF-AA-induced thymidine incorporation in U118 cells” value [8] was 3.4 nM.

B2: PDGF-BB (ligand, UniProt P01127 82-190, looked up)
chain: SLGSLTIAEPAMIAECKTRTEVFEISRRLIDRTNANFLVWPPCVEVQRCSGCCNNRNVQCRPTQVQLRPVQVRKIEIVRKKPIFKKATVTLEDHLACKCETVAAARPVT
modifications: 125I label in the blocking assay
With B2 the “PDGFRα tyrosine phosphorylation in PAE Rα cells” value [8] was ~5 fold (at 3 nmol/L).
